In a protein production outcome set (Wang et al. 2014):

assay: label from the status in PepcDB records
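Also: failed if final PepcDB status was selected cloned or expressed and not failed if soluble or beyond.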

Question: With “AIATVYRLPASISFDEVIQRVSRENVGAVVRCAVGEEQLVVATSHRQEAWTVLKSFLINRCVPMEAREEEPSLGLEKPQYWDRLPANGRTPMERSDHGRGLEFQKSSQDDPVFEKECLLSGYGAQAPSQTGTESLQIPQVALLEEPVPPAYLKKAENAAVSFCGLVRKDRLSSDRVVSALVYESYREMAMLYIHRIAAEQNLHMFVHTVAGSVPVGSVSVLVTGPSVESVRLALEALKRYVPIWKEDVSVPCI” as the sequence, how does the protein production read?
Answer: failed

Question: Which protein production does the source give for “AIREREMKVLNIQVTSSCNYACGMCPFHGDGYSGEYFDERPTIRRDMSLDEIKLILEKASMEGFEWIDLTPNGEFFTHKQWYQILSLIKEFGLKIMITSNGGLLGEEDIKRACEVGVDHIVISVDSLSYESYKKIRKPATKLAFERAIHAPLYFKKYG” here?
Answer: failed

Question: For “AKAPQKKHKVLLQQFNTGDERAQKRQPIRGSDEVLFKVYCMDHTYTTIRVPVATSVKEVISAVADKLGSGEGLIIVKMSSGGEKVVLKPNDVSVFTTLTINGRLFACPREQFDSLTPLPEQEGPTVGTVGTFELMSSKDLAYQMTIYDWELFNCVHELELIYHTFGRHNFKKTTANLDLFLRRFNEIQFWVVTEICLCSQLSKRVQLLKKFIKIAAHCKEYKNLNSFFAIVMGLSNVAVSRLALTWEKLPSKFKKFYAEFESLMDPSRNHRAYRLTVAKLEPPLIPFMPLLIKDMTFTHEGNKTFIDNLVNFEKMRMIANTARTVRYYRSQPFNPDAAQANKNHQDVRSYVRQLNVIDNQRTLSQMSHRLEPRRP”, which protein production is on record?
Answer: failed

Question: Which protein production does the source give for “AKDALLLWCQMKTAGYPNVNVHNFTTSWRDGLAFNAIVHKHRPDLLDFESLKKCNAHYNLQNAFNLAEKELGLTKLLDPEDVNVDQPDEKSIITYVATYYHYFSKMKALAVEGK” here?
Answer: not failed

Question: With “ALPPEPKEENAEPVSKLRIRTPSGEFLERRFLASNKLQIVFDFVASKGFPWDEYKLLSTFPRRDVTQLDPNKSLLEVKLFPQETLFLEAKE” as the sequence, how does the protein production read?
Answer: failed

Question: Which protein production does the source give for “ANFADSGKSLPPSMTSVPVTPVAAHTSSTPLTDIAADTTANDAPAIAAEFGQPDWPEEFGRKITWLATQRMQAAELKLHPAHLGPIEISLQLSDDQRLTAQFISHHPAVREAIEANLPRLREIMAENGITLADTSVSADT” here?
Answer: not failed

Question: For “ANGTVATAAIQPKKVKGVGFGDIFKDKPIKLRPRSIEVENDFLPVEKTIGKKLPATTATPDSSKTEMDSRTKSKDYCKVIFPYEAQNDDELTIKEGDIVTLINKDCIDVGWWEGELNGRRGVFPDNFVKLLPPDFEKEGNR”, which protein production is on record?
Answer: failed

Question: Which protein production does the source give for “ANMHIFENPSALAEALADDVGARLAAAIAARGTASLAVSGGSTPKAFFRSLSRRELDWSKVTVTLVDERFVPPENDRSNHRLVADNLLKDGAAEARFVPLYQAAETAEAAAAIASGRTASLGAPLDVVVLGMGTDGHTASFFPGGTRLEEALDPTTPRGVITMEAEGAGEPRLTFTFSSLQDAGYLVLHIEGSGKKEVLAQAEASGDEAEMPIRAMLRRAASPLQIYWAP” here?
Answer: failed

Question: For “APFFEMKLKHYKIFEGMPVTFTCRVAGNPKPKIYWFKDGKQISPKSDHYTIQRDLDGTCSLHTTASTLDDDGNYTIMAANPQGRISCTGRLMVQAVN”, which protein production is on record?
Answer: not failed

Question: With “APGTLVLAGTPIGDITDAPPRLAQELAGADVVAAEDTRRLRRLTQALGVQPAGRVVSYFEGNEAARTPELVEALLDGSRVLLVTDAGMPSVSDPGYRLVAAAVAKDIRVTAVPGPS” as the sequence, how does the protein production read?
Answer: failed

Question: For “AQDLYQNLESKVAQKTREVEEQNLRLKTLYDMTSFLHQQRALDETCQGFIRRLMQLTGADAANARLVDPERGKLDQIAQQGLPAEMALNEECIPDDACHCGEAVQQPFAVLRHIGELEGEEIRHCRKAGFASIAVFHIRNQREDVGIFTLYFRQKRVLSMAEQMLIETLGQHLGVAIEN”, which protein production is on record?
Answer: failed

Question: With “AQGQRRAPLSVVFTEPQVASVGLSLRQIEDLYADQDAANYVVGQVSFEGQGRSRVMGKNKGLLNVYADRTSGEFLGAEMFGPAAEHIGHLLAWARQQQMTVQAMLTMPFYHPVIEEGLRTALRDAQQKLA” as the sequence, how does the protein production read?
Answer: not failed

Question: Which protein production does the source give for “AQGVGVEAILLLRRECQASHEDALHLGLAEHAPVIELQTLRKLDGQAVSLIFHRYSAVYHELLADYQGGSVRQYLAECGLPLSRAQSLIGARLPSREEAGLLLMPRHMPALTVLTVSCDGAGQPVELSRSVSRSDRFQ” here?
Answer: failed

Question: With “AQKKTQKTYIPWSNGKLVVSEEGRYLKHENGTPFFWLGETGWLLPERLNRDEAEYYLEQCKRRGYNVIQVQTLNNVPSMNIYGQYSMTDGYNFKNINQKGVYGYWDHMDYIIRTAAKKGLYIGMVCIWGSPVSHGEMNVDQAKAYGKFLAERYKDEPNIIWFIGGDIRGDVKTAEWEALATSIKAIDKNHLMTFHPRGRTTSATWFNNAPWLDFNMFQSGHRRYGQRFGDGDYPIEENTEEDNWRFVERSMAMKPMKPVIDGEPIYEEIPHGLHDENELLWKDYDVRRYAYWSVFAGSFGHTYGHNSIMQFIKPGVGGAYGAKKPWYDALNDPGYNQMKYLKNLMLTFPFFERVPDQSVIAGQNGERYDRAIATRGNDYLMVYNYTGRPMEVDFSKISGAKKNAWWYTTKDGKLEYIGEFDNGVHKFQHDSGYSSGNDHVLIVVDSSKDYVKKDCYQIDTHE” as the sequence, how does the protein production read?
Answer: not failed

Question: For “ARNGDDCPLGPGRCCRLHTVRASLEDLGWADWVLSPREVQVTMCIGACPSQFRAANMHAQIKTSLHRLKPDTEPAPCCVPASYNPMVLIQKTDTGVSLQTYDDLLAKDCHCI”, which protein production is on record?
Answer: failed

Question: With “ARQRFIYIARHRSENIAYYAQALKIDGMVLKAESRRFYPLAEEASQLIGFTDVDDQQGSEGLERSFNSLLVGKNGKQIIRKDARGNVIENIRDEKQYDPQDVMLSID” as the sequence, how does the protein production read?
Answer: failed

Question: For “ASEGEKHITVTVIHGDQTENVFEFDTDAKYLGEVLESENLVDGESGEYGLFITTVDEETADDSKQQWWCITKGGEQVNTSADQTPVSDGDAFELTLKEGY”, which protein production is on record?
Answer: not failed

Question: Which protein production does the source give for “ATRRYYLGAVELSWDYMQSDLGELPVDARFPPRVPKSFPFNTSVVYKKTLFVEFTDHLFNIAKPRPPWMGLLGPTIQAEVYDTVV” here?
Answer: failed

Question: For “AVYLDCRDLQRTWEVIFNLFEPELQEFTRKVPINHIRQLVEHKHAKPVFSSPIVEGETVMVSCQFTCMEKTIKVYGFGSNKDQAKLSAAKHALQQLSKCDA”, which protein production is on record?
Answer: failed

Question: For “CEGGVDMQQSQVQLQCPLTPPRGLQVSIQGEAVAVRPGEDVLFVVRQEQGDVLTTKYQVDLGDGFKAMYVNLTLTGEPIRHRYESPGIYRVSVRAENTAGHDEAVLFVQV”, which protein production is on record?
Answer: not failed

Question: For “CFVTRIRLLDSNVIECTLSVESTGQECLEAVAQRLELRETHYFGLWFLSKSQQARWVELEKPLKKHLDKFANEPLLFFGVM”, which protein production is on record?
Answer: failed

Question: Which protein production does the source give for “DDDEPGGKGAMYEVTIEQSGDFRSFIKSVVVVANGTQLKDGATGESLASPVILSDEELAVEKVTLSTTGKAIEFAVSGGVVDGEDGVVNEPMQWVVTVYKNGKEIEKKSLVFRDGKEISTDDLNLYYN” here?
Answer: not failed

Question: Which protein production does the source give for “DDFEDSLEYLEPLDHDAYIVRLNFTGENTTEPIISYMTKTHNIDVNILEADIKNTKNGSLGFLVIHIPHISEEHFKQFKHNLHEQHVNVEVLKHG” here?
Answer: not failed

Question: Which protein production does the source give for “DDGVVAAAAFDADRTDPDTLCVRYITVRQDRQGDRLGARLLRFVRERATERGFEHVSIGVNNPFSYQAAYRAGFCFSG” here?
Answer: failed

Question: Which protein production does the source give for “DDLIFYKGVDGRYLGANKAFCDFFGKESMEGLSDADILDAEQLRLTQKSDEEVVRFRKNIRLEYGGGHPLRGRFFFSITKSPILLRGKVVGILGIARD” here?
Answer: failed

Question: Which protein production does the source give for “DDPEQFEVIKQQKEIIEHGIELFNKKPKRGIQFLQEQGMLGTSVEDIAQFLHQEERLDSTQVGDFLGDSARFNKEVMYAYVDQLDFCEKEFVSALRTFLEGFRLPGEAQKIDRLMEKFAARYIECNQGQTLFASADTAYVLAYSIIMLTTDLHSPQVKNKMTKEQYIKMNRGINDSKD” here?
Answer: failed

Question: Which protein production does the source give for “DDSLGEAVTTRAEALTIPAVLRARNLLSTTVARTPLVCDGTLPPFVPVAAPPGAATMQTPFHRMLATADDLLFNGVACWALDRDESGTCIGAIHIPLDTWQIEENTVRVNGKAVDPMEVCIFVGIHGGLLTHASETFTDARNLVRAAARVAQNPAALIELRQTNNAQLSPDDVDRIINGYVAARRGRNSGVGFSSSGLEVHEHEMAKENLLIEGRNAAAVDVARAMNVPAAFIDATVGGTSLSYQNAASRMIELVTFGVEPLMSAIEARLNQPDMHADHLANPLKFDPAALLDAIPTTPTIGAQPHGENS” here?
Answer: not failed

Question: With “DEETKAFEALLSNIVKPVASDIQARTVVLTWSPPSSLINGETDESSVPELYGYEVLISSTGKDGKYKSVYVGEETNITLNDLKPAMDYHAKVQAEYNSIKGTPSEAEIFTTLSCEPDIPNPPRI” as the sequence, how does the protein production read?
Answer: not failed

Question: For “DEGYWDCSVCTFRNSAEAFKCMMCDVRKGTSTRKPRPVSQ”, which protein production is on record?
Answer: not failed

Question: For “DFELLHKLGGGNYGDVHLASVKDCNFVCALKRLSIKKLADFDIATQLRREIEIAFNTRHKYLLRTYAYFFDETDIYLIMEPCSNGMLYTELNRVKCFAPPTAARYVAQLAEALLYLHQHHILHRDIKPENILLDHNNNIKLADFGWSVHDPDNRRKTSCGTPEYFPPEIVGRQAYDTSADLWCLGIFCYELLVGKTPFVGKDTDQICKNIHSMHFKIPENIPSEAKDLIANLLLRDGSRRLALHRVVNHQFLLKYYYLPNNL”, which protein production is on record?
Answer: not failed

Question: With “DFPKINHGILYDEEKYKPFSQVPTGEVFYYSCEYNFVSPSKSFWTRITCAEEGWSPTPKCLRLCFFPFVENGHSESSGQTHLEGDTVQIICNTGYRLQNNENNISCVERGWSTPPKCRSTISAEKCGPPPPIDNGDITSFLLSVYAPGSSVEYQCQNLYQLEGNNQITCRNGQWSEPPKCLDPCVISQEIMEKYNIKLKWTNQQKLYSRTGDIVEFVCKSGYHPTKSHSFRAMCQNGKLVYPSCEEK” as the sequence, how does the protein production read?
Answer: not failed

Question: With “DFRASATRPFTGEEYLASLRDDREIYIYGDRVKDVTSHPAFRNAAASMARLYDALHDPQSKEKLCWETDTGNGGYTHKFFRYARSADELRQQRDAIAEWSRLTYGWMGRTPDYKAAFGSALGANPGFYGRFEDNAKTWYKRIQEACLYLNHAIVNPPIDRDKPVDQVKDVFISVDEEVDGGIVVSGAKVVATNSALTHYNFVGQGSAQLLGDNTDFALMFIAPMNTPGMKLICRPSYELVAGIAGSPFDYPLSSRFDENDAILVMDKVFIPWENVLIYRDFERCKQWFPQGGFGRLFPMQGCTRLAVKLDFITGALYKALQCTGSLEFRGVQAQVGEVVAWRNLFWSLTDAMYGNASEWHGGAFLPSAEALQAYRVLAPQAYPEIKKTIEQVVASGLIYLPSGVRDLHNPQLDKYLSTYCRGSGGMGHRERIKILKLLWDAIGSEFGGRHELYEINYAGSQDEIRMQALRQAIGSGAMKGMLGMVEQCMGDYDENGWTVPHLHNPDDIN” as the sequence, how does the protein production read?
Answer: failed

Question: For “DGAVQYYDGAVTEITEQKRQEQQLRQSRERWRRLVEKLQDGLHIAVDGDIRYINPAGAEILGADAPDDVIGHSLWDFVALEQAQQEIFEDRLRKIYRERTSTAPQEMEITGLNGERRVIESYTVPIKFDGEQAGQTVFRDITEQKEMEQALREREARLRSITENVS”, which protein production is on record?
Answer: failed

Question: With “DHKDLIVVAAKHGYALADRNTGQLSYIRKVWDEQEDPEKARRMRFNDGAVDSHGRFWAGSMNDPKVQKPTNEGVLFRLDPDLQLHRMVEGVSIPNGIGWNLRDDTMYFTDSPTAKIFAFDFDASTGTISNRRVHYDVGEPMEPDGFAIDEEGCIWSAIYGGGKIIRISPEGKLIGEISFPTRNITCPTFVGTELFVTTAKDDVNDEQFPESVRYGGRVYRIDVGVRGKPKNEFRFQK” as the sequence, how does the protein production read?
Answer: failed

Question: Which protein production does the source give for “DIENSPIKDDNSIIEIFSYGCHYCAINEDNVSQLENRMPEGTRFIRLHISSDKTTGLGRFAPVFATLSVMGIEPQHRQSAYKAVLDDNSDLSDNRQLETWLKANDIDVAKYQQVSQSAEVKALISYMTAVTAHYKIDATPTFIVGKKWIALQDREFPAFSDHLLSLLEHD” here?
Answer: failed
